Measurements taken from patent US20240002491A1, “METHODS FOR SELECTING PATIENTS FOR TREATMENT WITH AN NGF ANTAGONIST” (Regeneron Pharmaceuticals, Inc., priority 2022, published 2024).

How the values were obtained:
Format in all cases: in vivo, human
[1] = system: adults with moderate-to-severe chronic pain associated with osteoarthritis (OA) of the knee or hip; experiment: FACT LTS (NCT02683239, R475-PN-1523) efficacy substudy; details: fasinumab 1 mg Q8W and 1 mg Q4W groups
From the text: (§1) NCT02683239 (R475-PN-1523, or “FACT LTS”), NCT03161093 (R475-OA-1611, or “FACT OA1”), and NCT03304379 (R475-OA-1688, or “FACT OA2”) each were Phase 3 trials evaluating fasinumab in adults with moderate-to-severe chronic pain associated with osteoarthritis (OA) of the knee or hip. All three of these trials enrolled patients with OA of the knee or hip who had inadequate pain relief with acetaminophen and were intolerant to or had inadequate pain relief with opioids, or were unwilling or unable to take opioids. Complete inclusion and exclusion criteria for the trials are described at clinicaltrials.gov/ct2/show/NCT03161093, clinicaltrials.gov/ct2/show/NCT03304379, and clinicaltrials.gov/ct2/show/NCT02683239.
The FACT LTS study evaluated the long-term safety and tolerability of fasinumab, including adverse events of special interest such as joint damage (e.g. arthropathies), compared with placebo. A total of 2,411 patients were randomized to one of the following treatment arms: (1) fasinumab 1 mg subcutaneous (SC) every 8 weeks (Q8W); (2) fasinumab 1 mg SC every 4 weeks (Q4W); or (3) matching placebo SC Q4W. This study also included a substudy evaluating the efficacy of fasinumab in these same patient groups (n=215 in fasinumab 1 mg Q8W, n=217 in fasinumab 1 mg Q4W, n=214 in placebo).

[2] = system: adults with moderate-to-severe chronic pain associated with osteoarthritis (OA) of the knee or hip; experiment: FACT OA2 (NCT03304379, R475-OA-1688) Phase 3 trial, WOMAC pain and physical function
From the text: as §1
(§2) FACT OA1 and FACT OA2 assessed the efficacy of fasinumab in comparison to nonsteroidal anti-inflammatory drugs (NSAIDs; naproxen, diclofenac, or celecoxib) for treatment of OA. FACT OA1 includes results from a total of 1,801 patients randomized to one of four treatment arms: fasinumab 1 mg SC once every 8 weeks (Q8W) (n=304), fasinumab 1 mg SC once every 4 weeks (Q4W) (n=639), naproxen 500 mg twice daily (n=644), or placebo (n=214). In FACT OA2, patients were randomized into one of six treatment groups: fasinumab 1 mg SC once every 4 weeks (Q4W), fasinumab 3 mg SC once every 4 weeks (Q4W), fasinumab 6 mg SC once every 8 weeks (Q8W), celecoxib 200 mg once daily, diclofenac 75 mg twice daily, or placebo. While the FACT OA2 trial was still ongoing, enrollment into the fasinumab 3 mg Q4W and 6 mg Q8W groups was stopped for safety considerations; patients enrolled in those dose regimens discontinued study drug and entered the post-treatment follow-up period.
(§3) Fasinumab patients in both trials also reported improvements in their pain and physical function (WOMAC score) compared to those treated with the highest-approved prescription doses of NSAIDS.

[3] = system: adults with moderate-to-severe chronic pain associated with osteoarthritis (OA) of the knee or hip; experiment: FACT OA1 (NCT03161093, R475-OA-1611) Phase 3 trial, WOMAC pain and physical function
From the text: as §1, §2, §3

[4] = system: patients with OA of the knee and/or hip; experiment: Integrated summary of safety (ISS): JR, AA, DA by number of large joints with OA at baseline
Method: To improve risk-benefit for patients, analyses were conducted to identify populations of patients that might be at greater risk for joint-related adverse events. An integrated summary of safety (ISS) analysis was performed using pooled data from the clinical studies R475-PN-1612 (NCT03285646), R475-PN-1227 (NCT02447276), R475-PN-1523 (NCT02683239), R475-OA-1611 (NCT03161093), R475-OA-1688 (NCT03304379), R475-OA-1758 (NCT03691974), and MT-5547-J01 (NCT03245008).
As used in this Example, the term “adjudicated arthropathy” or “AA” is an umbrella term that encompasses the following conditions: rapidly progressive OA type 1 or 2, subchondral insufficiency fractures, and primary osteonecrosis. The term “destructive arthropathy” or “DA” refers to abnormal bone fragmentation, destruction, or fracture over a short period of time, which are observed by X-ray radiography and which are features inconsistent with radiographic findings typically observed in conventional advanced OA. The term “joint replacement” or “JR” refers to joint replacement surgery.
To examine different phenotypes of OA (generalized OA in particular) a subgroup analysis based on the number of large joints (knees, hips, shoulders) with OA at baseline was performed. OA joints were defined as any hip or knee with baseline KL 2 score or above and any shoulder with a score of mild, moderate or severe. Thus, the minimum number of joints with OA was 1 and the maximum number could be 6. Three subgroups were arbitrarily designated 1-2, 3-4, and 5-6 large joints with OA at baseline.
The analyses are based on large numbers of patients: 2103 patients in the placebo group, 1676 patients in the fasinumab 1 mg Q8W group (also referred to herein as “1Q8”), and 3009 patients in the 1 mg Q4W group (also referred to herein as “1Q4”). The percentage of the population in each subgroup was similar across treatment arms; the 1-2 joint subgroup ranged from 55.8 to 59.5% of the entire population, the range for the 3-4 joint subgroup was 33.6 to 37.4%, and the range for in the 5-6 joint subgroup was 6.7 to 7.1%.

[5] = FACT OA2, Week 24, fasinumab 1 mg Q4W, diclofenac 2 × 75 mg/day or celecoxib 200 mg/d
[6] = FACT OA2, Week 24, fasinumab 1 mg Q4W, nominal p < 0.0001
[7] = FACT OA1, Week 16, fasinumab 1 mg Q4W, naproxen 2 × 500 mg/day
[8] = 1 mg Q4W (1Q4), 1-2 joint subgroup
[9] = 1 mg Q4W (1Q4), 5-6 joint subgroup
[10] = 1 mg Q8W (1Q8), 1-2 joint subgroup
[11] = 1 mg Q8W (1Q8), 5-6 joint subgroup

“Fasinumab: fully-human high-affinity monoclonal antibody directed against NGF; HCVR/LCVR SEQ ID NOs: 2/10” was tested, and the “co-primary endpoints: pain and physical function (WOMAC score) compared to placebo” value [1] was “significantly reduced pain and improved physical function (WOMAC score) compared to placebo”, the “WOMAC pain, change from baseline” value [2, 5] was −42% and the “WOMAC pain, change from baseline (score, in brackets)” value [2, 5] was “(−2.79)”. The “WOMAC physical function, change from baseline” value [2, 5] was −39%, the “WOMAC physical function, change from baseline (score, in brackets)” value [2, 5] was “(−2.63)” and the “WOMAC pain, difference vs. placebo” value [2, 6] was −0.79. The “WOMAC physical function, difference vs. placebo” value [2, 6] was −0.82, the “WOMAC physical function, difference vs. diclofenac/celecoxib” value ([2]; FACT OA2, Week 24, fasinumab 1 mg/month, nominal p = 0.0152) was −0.36 and the “WOMAC pain, difference vs. diclofenac/celecoxib” value ([2]; FACT OA2, Week 24, fasinumab 1 mg/month, nominal p = 0.0503) was −0.30. The “co-primary endpoints: pain and physical function compared to placebo” value ([2]; FACT OA2, fasinumab 1 mg Q4W, p<0.01 for all endpoints) was “significantly reduced pain and improved physical function compared to placebo”, the “WOMAC pain, change from baseline” value [3, 7] was −39% and the “WOMAC pain, change from baseline (score, in brackets)” value [3, 7] was “(−2.48)”. The “WOMAC physical function, change from baseline” value [3, 7] was −39%, the “WOMAC physical function, change from baseline (score, in brackets)” value [3, 7] was “(−2.41)” and the “WOMAC physical function, difference vs. placebo” value ([3]; FACT OA1, Week 16, fasinumab 1 mg Q4W, p = 0.0001) was −0.67. The “WOMAC pain, difference vs. placebo” value ([3]; FACT OA1, Week 16, fasinumab 1 mg Q4W, p = 0.0003) was −0.66, the “WOMAC physical function, difference vs. naproxen” value ([3]; FACT OA1, Week 16, fasinumab 1 mg/month vs naproxen 2 × 500 mg/day, nominal p = 0.0006) was −0.41 and the “WOMAC pain, difference vs. naproxen” value ([3]; FACT OA1, Week 16, fasinumab 1 mg/month vs naproxen 2 × 500 mg/day, nominal p = 0.0050) was −0.35. The “co-primary endpoints: pain and physical function compared to placebo” value ([3]; FACT OA1, fasinumab 1 mg Q4W, p<0.01 for all endpoints) was “significantly reduced pain and improved physical function compared to placebo”, the “median time for detection of DA” value ([4]; 1 mg Q4W) was 343.5 days and the “difference in all AA from placebo” value ([4]; 1 mg Q4W (1Q4)) was 5.7%. For the same substance, the “JR rate, difference from placebo” value [4, 8] was 1.3%, the RPOA-1 rate [4, 8] was 5.8% and the “RPOA-1 rate, difference versus placebo” value [4, 8] was 4.1%. For the same substance, the “percentage of patients who developed adjudicated arthropathy (AA)” value (shortened to “percentage … (AA)”) [4, 8] was 7.7%, the “percentage of patients who underwent joint replacement (JR)” value (from here on “percentage … (JR)”) [4, 8] was 6.4% and the “percentage of patients with destructive arthropathy (DA)” value (shortened to “percentage of patients … (DA)”) [4, 8] was 0.3%. For the same substance, the “percentage … (AA)” value [4, 9] was 12.2%, the “percentage … (JR)” value [4, 9] was 14.6% and the “percentage of patients … (DA)” value [4, 9] was 1.5%. The “median time for detection of DA” value ([4]; 1 mg Q8W) was 284 days, the “difference in all AA from placebo” value ([4]; 1 mg Q8W (1Q8)) was 3.7% and the “JR rate, difference from placebo” value [4, 10] was 0.8%. The RPOA-1 rate [4, 10] was 4.8%, the “RPOA-1 rate, difference versus placebo” value [4, 10] was 3.1% and the “percentage … (AA)” value [4, 10] was 5.7%. The “percentage … (JR)” value [4, 10] was 5.9%, the “percentage of patients … (DA)” value [4, 10] was 0.2% and the “percentage … (AA)” value [4, 11] was 10.7%. For the same substance, the “percentage … (JR)” value [4, 11] was 12.5%, the “percentage of patients … (DA)” value [4, 11] was 0.9% and the “median time for detection of DA” value ([4]; pooled high dose (3 mg Q4W, 6 mg Q4W, 9 mg Q8W, 9 mg Q4W)) was 364.5 days.
